Experimental data published in PMC5397184 (Nucleic Acids Research, 2017).

What was measured:
[1] = target: T1, E. coli β sliding clamp (wild type, His-tagged) (E. coli, UniProt P0A988 1-366); test: crystal structure
crystal structure = target: the molecule itself; test: crystal structure
[2] = target: T1, E. coli β sliding clamp (wild type, …); test: SEC-MALS

T1 sequence (P0A988 whole entry): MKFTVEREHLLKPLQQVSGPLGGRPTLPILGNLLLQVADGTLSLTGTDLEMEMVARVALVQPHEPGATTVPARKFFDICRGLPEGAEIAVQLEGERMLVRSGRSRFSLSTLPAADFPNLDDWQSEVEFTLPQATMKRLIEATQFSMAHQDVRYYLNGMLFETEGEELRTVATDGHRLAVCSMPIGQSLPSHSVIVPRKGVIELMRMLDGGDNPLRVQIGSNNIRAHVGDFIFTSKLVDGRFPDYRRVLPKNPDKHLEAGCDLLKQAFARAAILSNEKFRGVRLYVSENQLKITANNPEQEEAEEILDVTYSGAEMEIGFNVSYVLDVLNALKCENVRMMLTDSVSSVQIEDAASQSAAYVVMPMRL

Row | Binder | binding result [1] | binding result (crystal structure) | binding result [2]
1 | E. coli Hda (full-length, wild type) (natural protein) MNTPAQLSLPLYLPDDETFASFWPGDNSSLLAALQNVLRQEHSGYIYLWAREGAGRSHLLHAACAELSQRGDAVGYVPLDKRTWFVPEVLDGMEHLSLVCIDNIECIAGDELWEMAIFDLYNRILESGKTRLLITGDRPPRQLNLGLPDLASRLDWGQIYKLQPLSDEDKLQALQLRARLRGFELPEDVGRFLLKRLDREMRTLFMTLDQLDRASITAQRKLTIPFVKEILKL | binds | binds | –
2 | E. coli Hda W156A (natural protein) MNTPAQLSLPLYLPDDETFASFWPGDNSSLLAALQNVLRQEHSGYIYLWAREGAGRSHLLHAACAELSQRGDAVGYVPLDKRTWFVPEVLDGMEHLSLVCIDNIECIAGDELWEMAIFDLYNRILESGKTRLLITGDRPPRQLNLGLPDLASRLDAGQIYKLQPLSDEDKLQALQLRARLRGFELPEDVGRFLLKRLDREMRTLFMTLDQLDRASITAQRKLTIPFVKEILKL | – | – | binds
3 | E. coli Hda hook mutant (K81S, W84S, F85S) (natural protein) MNTPAQLSLPLYLPDDETFASFWPGDNSSLLAALQNVLRQEHSGYIYLWAREGAGRSHLLHAACAELSQRGDAVGYVPLDSRTSSVPEVLDGMEHLSLVCIDNIECIAGDELWEMAIFDLYNRILESGKTRLLITGDRPPRQLNLGLPDLASRLDWGQIYKLQPLSDEDKLQALQLRARLRGFELPEDVGRFLLKRLDREMRTLFMTLDQLDRASITAQRKLTIPFVKEILKL | – | – | binds
